Results published in patent publication US20260224670.

T1: EB2 of mouse neurons and mouse brain, Q8R001
T1 chain: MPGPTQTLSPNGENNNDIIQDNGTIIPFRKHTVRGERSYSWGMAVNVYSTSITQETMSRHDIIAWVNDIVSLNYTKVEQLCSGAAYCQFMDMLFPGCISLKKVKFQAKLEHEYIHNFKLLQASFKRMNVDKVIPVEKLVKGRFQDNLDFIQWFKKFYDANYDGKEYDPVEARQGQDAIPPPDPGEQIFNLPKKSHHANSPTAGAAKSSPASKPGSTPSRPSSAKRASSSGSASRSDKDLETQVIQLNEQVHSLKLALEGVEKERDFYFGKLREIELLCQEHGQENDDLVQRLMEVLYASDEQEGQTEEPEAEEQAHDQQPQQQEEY


Target: T1, EB2 of mouse neurons and mouse brain, …

Protein	phospho-Ser222 EB2 in transfected CDKL5 KO primary cortical neurons	also measured
hCDKL2 (cyclin dependent kinase like 2), 3xFLAG-TwinStrep tagged (protein) MEKYENLGLVGEGSYGMVMKCRNKDTGRIVAIKKFLESDDDKMVKKIAMREIKLLKQLRHENLVNLLEVCKKKKRWYLVFEFVDHTILDDLELFPNGLDYQVVQKYLFQIINGIGFCHSHNIIHRDIKPENILVSQSGVVKLCDFGFARTLAAPGEVYTDYVATRWYRAPELLVGDVKYGKAVDVWAIGCLVTEMFMGEPLFPGDSDIDQLYHIMMCLGNLIPRHQELFNKNPVFAGVRLPEIKEREPLERRYPKLSEVVIDLAKKCLHIDPDKRPFCAELLHHDFFQMDGFAERFSQELQLKVQKDARNVSLSKKSQNRKKEKEKDDSLVEERKTLVVQDTNADPKIKDYKLFKIKGSKIDGEKAEKGNRASNASCLHDSRTSHNKIVPSTSLKDCSNVSVDHTRNPSVAIPPLTHNLSAVAPSINSGMGTETIPIQGYRVDEKTKKCSIPFVKPNRHSPSGIYNINVTTLVSGPPLSDDSGADLPQMEHQH	pS222 EB2 is specifically increased in the neurons that express these kinases	–
hICK, 3xFLAG-TwinStrep tagged (protein) MNRYTTIRQLGDGTYGSVLLGRSIESGELIAIKKMKRKFYSWEECMNLREVKSLKKLNHANVVKLKEVIRENDHLYFIFEYMKENLYQLIKERNKLFPESAIRNIMYQILQGLAFIHKHGFFHRDLKPENLLCMGPELVKIADFGLAREIRSKPPYTDYVSTRWYRAPEVLLRSTNYSSPIDVWAVGCIMAEVYTLRPLFPGASEIDTIFKICQVLGTPKKTDWPEGYQLSSAMNFRWPQCVPNNLKTLIPNASSEAVQLLRDMLQWDPKKRPTASQALRYPYFQVGHPLGSTTQNLQDSEKPQKGILEKAGPPPYIKPVPPAQPPAKPHTRISSRQHQASQPPLHLTYPYKAEVSRTDHPSHLQEDKPSPLLFPSLHNKHPQSKITAGLEHKNGEIKPKSRRRWGLISRSTKDSDDWADLDDLDFSPSLSRIDLKNKKRQSDDTLCRFESVLDLKPSEPVGTGNSAPTQTSYQRRDTPTLRSAAKQHYLKHSRYLPGISIRNGILSNPGKEFIPPNPWSSSGLSGKSSGTMSVISKVNSVGSSSTSSSGLTGNYVPSFLKKEIGSAMQRVHLAPIPDPSPGYSSLKAMRPHPGRPFFHTQPRSTPGLIPRPPAAQPVHGRTDWASKYASRR	pS222 EB2 is specifically increased in the neurons that express these kinases	–
CDKL5 (recombinantly expressed) (protein) MKIPNIGNVMNKFEILGVVGEGAYGVVLKCRHKETHEIVAIKKFKDSEENEEVKETTLRELKMLRTLKQENIVELKEAFRRRGKLYLVFEYVEKNMLELLEEMPNGVPPEKVKSYIYQLIKAIHWCHKNDIVHRDIKPENLLISHNDVLKLCDFGFARNLSEGNNANYTEYVATRWYRSPELLLGAPYGKSVDMWSVGCILGELSDGQPLFPGESEIDQLFTIQKVLGPLPSEQMKLFYSNPRFHGLRFPAVNHPQSLERRYLGILNSVLLDLMKNLLKLDPADRYLTEQCLNHPTFQTQRLLDRSPSRSAKRKPYHVESSTLSNRNQAGKSTALQSHHRSNSKDIQNLSVGLPRADEGLPANESFLNGNLAGASLSPLHTKTYQASSQPGSTSKDLTNNNIPHLLSPKEAKSKTEFDFNIDPKPSEGPGTKYLKSNSRSQQNRHSFMESSQSKAGTLQPNEKQSRHSYIDTIPQSSRSPSYRTKAKSHGALSDSKSVSNLSEARAQIAEPSTSRYFPSSCLDLNSPTSPTPTRHSDTRTLLSPSGRNNRNEGTLDSRRTTTRHSKTMEELKLPEHMDSSHSHSLSAPHESFSYGLGYTSPFSSQQRPHRHSMYVTRDKVRAKGLDGSLSIGQGMAARANSLQLLSPQPGEQLPPEMTVARSSVKETSREGTSSFHTRQKSEGGVYHDPHSDDGTAPKENRHLYNDPVPRRVGSFYRVPSPRPDNSFHENNVSTRVSSLPSESSSGTNHSKRQPAFDPWKSPENISHSEQLKEKEKQGFFRSMKKKKKKSQTVPNSDSPDLLTLQKSIHSASTPSSRPKEWRPEKISDLQTQSQPLKSLRKLLHLSSASNHPASSDPRFQPLTAQQTKNSFSEIRIHPLSQASGGSSNIRQEPAPKGRPALQLPGQMDPGWHVSSVTRSATEGPSYSEQLGAKSGPNGHPYNRTNRSRMPNLNDLKETAL	pS222 EB2 is specifically increased in the neurons that express these kinases	–
mouse CDKL2 (endogenous) (protein) MEKYENLGLVGEGSYGMVMKCRNKDSGRIVAIKKFLESDDDKMVKKIAMREIKLLKQLRHENLVNLLEVCKKKKRWYLVFEFVDHTILDDLKLFPNGLDYQVVQKYLFQIINGIGFCHSHNIIHRDIKPENILVSQSGVVKLCDFGFARTLAAPGEVYTDYVATRWYRAPELLVGDVKYGKAVDIWAIGCLVIEMLMGQPLFPGESDIDQLHHIMTCLGNLIPRHQELFYKNPVFAGVRLPEVKDAEAEPLESRYPKLPEAVISLAKKCLHIDPDKRPFCADLLRHDFFQMDGFAERFSQELQLKIEKDARNNSLPKKSQNRKKEKDDALGEERKTLVVQDTNADPKIKDSKVFKVKGSKIDVEKMEKGSRASNANCLHDNGTNHKGLASTSLRDCSNVNIDHSRNPGTAIPPLTHNLSAVAPGINAGMGTIPGVQNYRVDEKTKKYCNPFVKPNQPPPAGIYNMNVSTSVSGEKYLLQANKKRKEYPKADVRLPELNYNHLPELRALEGIARNSRLIKKENKCLSESRIPSLAAIDLHVSSVASHQGAGSPLSDDSEADLPRMEHQH	–	okadaic acid dependent increase of pEB2/EB2 in CDKL5 KO primary neurons after CDKL2 shRNA knockdown: Both shRNAs caused a reduction of the OA dependent increase of pEB2/EB2
mouse CDKL5 (endogenous) (protein) MKIPNIGNVMNKFEILGVVGEGAYGVVLKCRHKETHEIVAIKKFKDSEENEEVKETTLRELKMLRTLKQENIVELKEAFRRRGKLYLVFEYVEKNMLELLEEMPNGVPPEKVKSYIYQLIKAIHWCHKNDIVHRDIKPENLLISHNDVLKLCDFGFARNLSEGNNANYTEYVATRWYRSPELLLGAPYGKSVDMWSVGCILGELSDGQPLFPGESEIDQLFTIQKVLGPLPSEQMKLFYSNPRFHGLRFPAVNHPQSLERRYLGILNSVLLDLMKNLLKLDPADRYLTEQCLNHPTFQTQRLLDRSPSRSTKRKPYHVESSTLSNRNQSTKGAALQTHHRSNSKDIQNLSVGLPRAEEGLPANESFLNGNLAGATLSPMHTKTYQASTQPGSSSKDLTNNNIPHLLSPKEAKSKTEFDFNIDTKPSEGPGTKYLKSSTRSQQNRHSFMESSQSKAGTLQPSEKQSRHSYIDTIPQSSRSPSYRTKAKSHGALSDSKSVSNLSEARAQITETNTSRYFPSSCLDLNSPTSPTPTRHTDTRTLLSPSGRNNRNEGTLDSRRTTTRHSKTMEELKLPEHMDSSHSHSLSAPHESFSYGLGYTSPFSSQQRPHRHSMYVTRDKVRAKGLDGSLSIGQGMAARANSLQLLSPQPGEQLPPEMTVARPSVKESSREGASSFHTRQKSEGGVYHDPHSDDGTAPKENRHLYNDPVPRRVGSFYRVPSPRPDNSFHENNVSTRVSSLPSDSSSGTNHSKRQPGFDPWKSPENISHADQLKEKEKQGFFRSMKKKKKKTQTVPNTDGPDLLTLQKAIHSSSTASSRPKEWRPEKLSDLQTQSQPLKSLRKLLHLSSSTNHPASSDPRFQPLTAQQAKNSFSEIRIHPLSQATGGSSNIRQEPTPKGRPALQLPGSSLLRYNGWKHSRSRSSQPDEVIFLASHEKWKQ	–	pS222 EB2 in primary cortical cultures of CDKL5 KO against wild type littermates: pS222 EB2 is much lower in CDKL5 KOs
